Measurements as given in the array DNA melting data of Ke et al..

Assay: melting temperature; UV melt of duplexes

Substance	Tm (sodium 0.07 M, strand 2 µM)	Tm (sodium 0.12 M, strand 2 µM)	Tm (sodium 0.22 M, strand 2 µM)	Tm (sodium 0.62 M, strand 2 µM)	Tm (sodium 1.02 M, strand 2 µM)	Tm (sodium 0.15 M, strand 1.1 µM)	Tm (sodium 0.12 M, strand 4 µM)	Tm (sodium 0.12 M, strand 5.3 µM)
CTTCAACGGATCAGGTAGGACTGTGGTGGG+CCCACCACAGTCCTACCTGATCCGTTGAAG ((((((((((((((((((((((((((((((+))))))))))))))))))))))))))))))	67.6 °C	71.7 °C	74.7 °C	78.8 °C	80.1 °C			
GACCTGACGTGGACCGCTCCTGGGCGTGGT+ACCACGCCCAGGAGCGGTCCACGTCAGGTC ((((((((((((((((((((((((((((((+))))))))))))))))))))))))))))))	74.4 °C	78.4 °C	81.5 °C	85.2 °C	86.4 °C			
GAGATTGTTTCCCTTTCAAA+TTTGAAAGGGAAACAATCTC ((((((((((((((((((((+))))))))))))))))))))	49.3 °C	52.8 °C	57.6 °C	62.6 °C	65.3 °C			
GATGACGCTAGCTAGCTAGGAC+GTCCTAGCTAGCTAGCGTCATC ((((((((((((((((((((((+))))))))))))))))))))))						64 °C		
GCCCCTCCACTGGCCGACGGCAGCAGGCTC+GAGCCTGCTGCCGTCGGCCAGTGGAGGGGC ((((((((((((((((((((((((((((((+))))))))))))))))))))))))))))))	76.3 °C	79.8 °C	83.6 °C	87.1 °C	87.7 °C			
GCGGATTAGGATCCATATCGCG+CGCGATATGGATCCTAATCCGC ((((((((((((((((((((((+))))))))))))))))))))))							65.4 °C	
GCGGGCGAGGATCCAGCGCGCG+CGCGCGCTGGATCCTCGCCCGC ((((((((((((((((((((((+))))))))))))))))))))))								77.2 °C
GTCATACGACTGAGTGCAACATTGTTCAAA+TTTGAACAATGTTGCACTCAGTCGTATGAC ((((((((((((((((((((((((((((((+))))))))))))))))))))))))))))))	62.7 °C	66.8 °C	70.8 °C	75.9 °C	76.9 °C			
GTGGTGGGCCGTGCGCTCTG+CAGAGCGCACGGCCCACCAC ((((((((((((((((((((+))))))))))))))))))))	69.2 °C	72.7 °C	76.2 °C	79.6 °C	81 °C			
GTTCACGTCCGAAAGCTCGAAAAAGGATAC+GTATCCTTTTTCGAGCTTTCGGACGTGAAC ((((((((((((((((((((((((((((((+))))))))))))))))))))))))))))))	64.3 °C	68.2 °C	72.1 °C	77.1 °C	78.7 °C			
TAACCATACTGAATACCTTTTGACG+CGTCAAAAGGTATTCAGTATGGTTA (((((((((((((((((((((((((+)))))))))))))))))))))))))	56.5 °C	60.2 °C	64.3 °C	68.9 °C	71.3 °C			
TACTTCCAGTGCTCAGCGTA+TACGCTGAGCACTGGAAGTA ((((((((((((((((((((+))))))))))))))))))))	60.3 °C	64.4 °C	67.7 °C	71.6 °C	73.6 °C			
TAGTATATCGCAGCATCATACAGGC+GCCTGTATGATGCTGCGATATACTA (((((((((((((((((((((((((+)))))))))))))))))))))))))	61.2 °C	64.7 °C	69.1 °C	72.8 °C	75 °C			
TAGTGGCGATTAGATTCTGC+GCAGAATCTAATCGCCACTA ((((((((((((((((((((+))))))))))))))))))))	57 °C	60.6 °C	64.8 °C	69.1 °C	71.2 °C			
TATGTATATTTTGTAATCAG+CTGATTACAAAATATACATA ((((((((((((((((((((+))))))))))))))))))))	44.4 °C	47.7 °C	52.6 °C	57.6 °C	61.2 °C			
TCAGTAGGCGTGACGCAGAGCTGGCGATGG+CCATCGCCAGCTCTGCGTCACGCCTACTGA ((((((((((((((((((((((((((((((+))))))))))))))))))))))))))))))	72.2 °C	75.7 °C	79.3 °C	83.3 °C	84.6 °C			
TCCACACGGTAGTAAAATTAGGCTT+AAGCCTAATTTTACTACCGTGTGGA (((((((((((((((((((((((((+)))))))))))))))))))))))))	59.3 °C	63.1 °C	67.3 °C	71.8 °C	73.8 °C			
TGGATTCTACTCAACCTTAGTCTGG+CCAGACTAAGGTTGAGTAGAATCCA (((((((((((((((((((((((((+)))))))))))))))))))))))))	59 °C	63.1 °C	67.1 °C	71.3 °C	73.6 °C			
TTATGTATTAAGTTATATAGTAGTAGTAGT+ACTACTACTACTATATAACTTAATACATAA ((((((((((((((((((((((((((((((+))))))))))))))))))))))))))))))	50.7 °C	55 °C	59.3 °C	65.1 °C	66.6 °C			
